Data set [1] concerns the target endogenous huntingtin from HD60i4 NPC (CAG60/18) (Homo sapiens) (UniProt P42858). Description: streptavidin pull-down. Particulars: NPC lysate; ELISA: 10 mM Tris-HCl pH 8.0, 0.15 M NaCl (TBS), 2 mg/mL BSA block, 1 pmol huntingtin/well, 50 pmol biotin-aptamer, 2 h (RT for coating/blocking); caspase-6 …. For orientation: In an ELISA, binding on a coated surface is turned into a signal by an enzyme label.

The target of data set [2] is Q78-huntingtin caspase-6 C-terminal fragment (270 kDa) (Homo sapiens, UniProt P42858 585-3142). Description: caspase-6 digestion of complex, anti-biotin immunoblot; ELISA: 10 mM Tris-HCl pH 8.0, 0.15 M NaCl (TBS), 2 mg/mL BSA block, 1 pmol huntingtin/well, 50 pmol biotin-aptamer, 2 h (RT for coating/blocking); caspase-6 mapping: aptamer:huntingtin 10:1, 2 h RT, spin column; SLM: 5:1, 2 h RT. Particulars: protein: recombinant; label: 5'-biotin; intramolecular G4.
Q78-huntingtin caspase-6 C-terminal fragment (270 kDa), sequence (P42858 585-3142): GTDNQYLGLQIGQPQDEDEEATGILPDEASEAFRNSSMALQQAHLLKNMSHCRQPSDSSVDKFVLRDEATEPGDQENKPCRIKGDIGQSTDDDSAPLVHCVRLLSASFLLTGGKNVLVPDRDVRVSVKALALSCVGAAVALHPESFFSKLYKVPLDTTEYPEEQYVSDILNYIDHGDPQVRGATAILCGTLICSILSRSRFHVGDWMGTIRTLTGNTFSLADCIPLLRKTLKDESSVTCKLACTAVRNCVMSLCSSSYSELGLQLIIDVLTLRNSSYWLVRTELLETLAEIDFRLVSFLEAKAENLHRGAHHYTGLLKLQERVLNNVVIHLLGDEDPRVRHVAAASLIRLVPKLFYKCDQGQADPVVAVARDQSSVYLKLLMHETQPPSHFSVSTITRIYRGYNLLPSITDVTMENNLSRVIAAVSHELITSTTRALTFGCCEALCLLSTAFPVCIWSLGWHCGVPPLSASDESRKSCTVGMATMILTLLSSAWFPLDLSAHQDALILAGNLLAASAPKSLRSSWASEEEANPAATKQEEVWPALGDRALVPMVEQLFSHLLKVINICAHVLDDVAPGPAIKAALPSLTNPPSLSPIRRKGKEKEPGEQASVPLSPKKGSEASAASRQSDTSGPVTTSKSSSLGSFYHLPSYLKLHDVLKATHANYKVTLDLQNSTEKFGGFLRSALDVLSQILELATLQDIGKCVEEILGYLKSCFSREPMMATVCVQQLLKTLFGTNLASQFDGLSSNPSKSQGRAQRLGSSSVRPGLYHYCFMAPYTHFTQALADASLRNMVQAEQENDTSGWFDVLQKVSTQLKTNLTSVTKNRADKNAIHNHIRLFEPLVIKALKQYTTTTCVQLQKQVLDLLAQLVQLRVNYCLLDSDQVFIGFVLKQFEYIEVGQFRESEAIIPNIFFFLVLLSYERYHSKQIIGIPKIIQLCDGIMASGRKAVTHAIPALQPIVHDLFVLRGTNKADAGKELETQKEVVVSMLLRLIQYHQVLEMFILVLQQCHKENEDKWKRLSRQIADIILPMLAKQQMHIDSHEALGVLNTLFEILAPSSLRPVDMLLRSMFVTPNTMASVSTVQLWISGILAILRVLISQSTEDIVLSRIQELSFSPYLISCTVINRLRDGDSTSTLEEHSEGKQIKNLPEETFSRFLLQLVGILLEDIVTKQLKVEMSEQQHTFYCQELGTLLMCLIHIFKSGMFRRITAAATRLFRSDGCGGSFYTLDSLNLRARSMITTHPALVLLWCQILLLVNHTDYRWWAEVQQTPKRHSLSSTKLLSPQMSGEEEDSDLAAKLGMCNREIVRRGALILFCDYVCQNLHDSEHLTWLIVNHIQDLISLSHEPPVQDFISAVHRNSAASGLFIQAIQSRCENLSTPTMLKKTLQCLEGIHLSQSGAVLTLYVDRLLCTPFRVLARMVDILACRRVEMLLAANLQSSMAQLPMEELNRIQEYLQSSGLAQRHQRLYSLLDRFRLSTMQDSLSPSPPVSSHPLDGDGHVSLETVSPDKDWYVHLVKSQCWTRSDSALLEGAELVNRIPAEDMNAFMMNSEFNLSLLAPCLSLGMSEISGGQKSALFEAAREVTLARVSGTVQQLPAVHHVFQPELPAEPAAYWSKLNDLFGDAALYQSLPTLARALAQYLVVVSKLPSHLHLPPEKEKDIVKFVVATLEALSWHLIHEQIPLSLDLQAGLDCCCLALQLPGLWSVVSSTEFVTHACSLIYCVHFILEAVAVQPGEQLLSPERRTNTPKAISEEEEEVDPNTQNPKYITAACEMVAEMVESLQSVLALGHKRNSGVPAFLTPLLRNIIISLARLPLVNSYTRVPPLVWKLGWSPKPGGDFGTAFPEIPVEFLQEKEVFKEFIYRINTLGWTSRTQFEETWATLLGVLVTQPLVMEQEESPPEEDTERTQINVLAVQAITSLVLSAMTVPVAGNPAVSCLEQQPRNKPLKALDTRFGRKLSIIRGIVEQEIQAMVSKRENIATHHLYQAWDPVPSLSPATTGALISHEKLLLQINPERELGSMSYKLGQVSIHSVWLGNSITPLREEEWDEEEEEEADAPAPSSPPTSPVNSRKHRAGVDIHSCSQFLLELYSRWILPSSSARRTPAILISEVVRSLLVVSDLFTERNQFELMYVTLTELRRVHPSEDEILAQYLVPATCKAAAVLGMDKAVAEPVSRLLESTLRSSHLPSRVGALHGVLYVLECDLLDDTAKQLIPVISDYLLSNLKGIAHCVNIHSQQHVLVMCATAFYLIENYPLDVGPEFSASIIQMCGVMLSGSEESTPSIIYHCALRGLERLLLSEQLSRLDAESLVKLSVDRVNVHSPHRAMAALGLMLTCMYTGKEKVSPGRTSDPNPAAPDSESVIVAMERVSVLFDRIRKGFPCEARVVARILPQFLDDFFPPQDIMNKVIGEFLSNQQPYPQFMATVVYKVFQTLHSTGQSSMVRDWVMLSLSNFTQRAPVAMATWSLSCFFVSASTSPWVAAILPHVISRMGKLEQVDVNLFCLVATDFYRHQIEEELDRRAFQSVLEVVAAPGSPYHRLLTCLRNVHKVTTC

In data set [1], “GGGAGGGAGGGAGGGAGGGAGGGAGGGAGGGAGGGA [MS3]” yielded a binding signal (fold vs HD17m8) of 3.6.

B1: MS1 (structured_DNA)
DNA: AGGGGTGGGGAGGGGTGGGGA
On to B1, for which the binding result in data set [2] was “binds”.

B2: MS3 (structured_DNA)
DNA: GGGAGGGAGGGAGGGAGGGAGGGAGGGAGGGAGGGA
Turning to B2, the binding result in data set [2] is “binds”.

B3: MS4 (structured_DNA)
DNA: TGGGGAGGGGAGGGGCGGGGT
With B3, the binding result in data set [2] is “binds”.

B4: MS2 (structured_DNA)
DNA: AGGGGTGGGGAGGGGAGGGGA
In the case of B4, in data set [2], the binding result is “binds”.
